Measured values as given in article doi:10.1101/2022.11.15.516651 (bioRxiv, 2022).

T1: FLAG-SLC3A2 N381D (human, UniProt P08195-1 66-630, N381D)
T1 sequence (looked up): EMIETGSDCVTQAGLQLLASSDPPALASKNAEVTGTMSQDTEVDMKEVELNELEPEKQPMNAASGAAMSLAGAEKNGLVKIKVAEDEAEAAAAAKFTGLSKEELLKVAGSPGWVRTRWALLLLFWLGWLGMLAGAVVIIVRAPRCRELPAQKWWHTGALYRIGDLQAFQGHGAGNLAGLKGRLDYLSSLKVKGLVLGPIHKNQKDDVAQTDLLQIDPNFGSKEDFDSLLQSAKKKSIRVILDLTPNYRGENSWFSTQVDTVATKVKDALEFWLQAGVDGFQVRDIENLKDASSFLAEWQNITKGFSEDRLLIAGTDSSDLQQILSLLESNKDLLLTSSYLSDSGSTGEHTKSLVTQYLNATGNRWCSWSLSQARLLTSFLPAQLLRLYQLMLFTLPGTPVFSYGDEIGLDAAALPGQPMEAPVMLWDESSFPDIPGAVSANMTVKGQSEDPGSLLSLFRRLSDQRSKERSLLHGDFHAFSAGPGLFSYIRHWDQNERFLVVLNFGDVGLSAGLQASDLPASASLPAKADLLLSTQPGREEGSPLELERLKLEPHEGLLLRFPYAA

T2: FLAG-SLC3A2 N365D (human, UniProt P08195-1 66-630, N365D)
T2 sequence (looked up): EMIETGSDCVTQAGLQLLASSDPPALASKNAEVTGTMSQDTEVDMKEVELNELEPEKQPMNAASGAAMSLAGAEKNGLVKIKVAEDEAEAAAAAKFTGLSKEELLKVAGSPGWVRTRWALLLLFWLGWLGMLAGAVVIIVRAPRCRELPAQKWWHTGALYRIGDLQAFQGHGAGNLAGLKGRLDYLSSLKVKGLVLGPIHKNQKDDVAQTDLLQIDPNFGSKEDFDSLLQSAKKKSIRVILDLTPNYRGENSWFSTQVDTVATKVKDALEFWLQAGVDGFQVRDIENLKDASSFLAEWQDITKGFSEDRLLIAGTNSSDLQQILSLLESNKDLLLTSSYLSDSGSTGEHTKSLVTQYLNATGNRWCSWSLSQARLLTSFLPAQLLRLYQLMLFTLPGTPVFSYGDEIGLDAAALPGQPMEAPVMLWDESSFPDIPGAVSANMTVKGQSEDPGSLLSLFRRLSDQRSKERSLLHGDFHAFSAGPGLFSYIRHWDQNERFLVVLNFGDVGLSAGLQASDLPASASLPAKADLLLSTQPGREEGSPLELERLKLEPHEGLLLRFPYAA


Key:
FLAG-SLC3A2 N381D = target: T1, FLAG-SLC3A2 N381D; test: affinity purification with mass spectrometry
FLAG-SLC3A2 N365D = target: T2, FLAG-SLC3A2 N365D; test: affinity purification with mass spectrometry

| percent decrease of association against WTseq (FLAG-SLC3A2 N381D) | percent decrease of association against WTseq (FLAG-SLC3A2 N365D) | Binder |
| --- | --- | --- |
| 67 ± 15% | 67 ± 15% | SLC7A11 (xc(-)) (natural protein, human (endogenous in HeLa), UniProt Q9UPY5 1-501, looked up) MVRKPVVSTISKGGYLQGNVNGRLPSLGNKEPPGQEKVQLKRKVTLLRGVSIIIGTIIGAGIFISPKGVLQNTGSVGMSLTIWTVCGVLSLFGALSYAELGTTIKKSGGHYTYILEVFGPLPAFVRVWVELLIIRPAATAVISLAFGRYILEPFFIQCEIPELAIKLITAVGITVVMVLNSMSVSWSARIQIFLTFCKLTAILIIIVPGVMQLIKGQTQNFKDAFSGRDSSITRLPLAFYYGMYAYAGWFYLNFVTEEVENPEKTIPLAICISMAIVTIGYVLTNVAYFTTINAEELLLSNAVAVTFSERLLGNFSLAVPIFVALSCFGSMNGGVFAVSRLFYVASREGHLPEILSMIHVRKHTPLPAVIVLHPLTMIMLFSGDLDSLLNFLSFARWLFIGLAVAGLIYLRYKCPDMHRPFKVPLFIPALFSFTCLFMVALSLYSDPFSTGIGFVITLTGVPAYYLFIIWDKKPRWFRIMSEKITRTLQIILEVVPEEDKL |
| 44 ± 14% | 44 ± 14% | SLC7A5 (natural protein) not shown |
